Positions count from the first letter of the chain named.
B1: anti-c-Kit antibody, parental IgG1 (antibody, V domains shown)
VH: EVQLVESGGGLVQPGGSLRLSCAASGFAFSGYYMAWVRQAPGKGLEWVANINYPGSSTYYLDSVKGRFTISRDNAKNSLYLQMNSLRAEDTAVYYCARGDYYGTTYWYFDVWGQGTTVTVSS
VL: DIQMTQSPSSLSASVGDRVTITCRASQSISSYLNWYQQKPGKAPKLLIYYTSRLQSGVPSRFSGSGSGTDFTLTISSLQPEDFATYYCQQGRRLWSFGGGTKVEIKR
notes: Parental, unmutated IgG1, VH3/Vk1, made in-house
B2: anti-HER3 antibody, parental IgG1 (antibody, V domains shown)
VH: EVQLLESGGGLVQPGGSLRLSCAASGFTFSSYAMSWVRQAPGKGLEWVSVTGAVGRSTYYPDSVKGRFTISRDNSKNTLYLQMNSLRAEDTAVYYCARWGDEGFDIWGQGTLVTVSS
VL: DIQMTQSPSSLSASVGDRVTITCRASQGISNWLAWYQQKPGKAPKLLIYGASSLQSGVPSRFSGSGSGTDFTLTISSLQPEDFATYYCQQYSSFPTTFGQGTKVEIKR
notes: Parental, unmutated IgG1
B3: Mutated IL-17/Mutated HER3 (b) heterodimeric antibody (bispecific antibody)
heavy 1: not shown
light 1: AIQLTQSPSSLSASVGDRVTITCRPSQGINWELAWYQDKPGKAPKLLIYDASSLEQGVPSRFSGSGSGTDFTLTISSLQPEDFATYYCQQFNSYPLTFGGGTKVEIKRTVAAPSVFIFPPSDEKLKSGTASVVCLLNNFYPREAKVQWKVDNALQSGNSQESVTEQDSDDSTYSLSSTLTLSKADYEKHKVYACEVTHQGLSSPVTKSFNRGEC
heavy 2: not shown
light 2: DIQMTQSPSSLSASVGDRVTITCRASQGISNWLAWYQKKPGKAPKLLIYGASSLQSGVPSRFSGSGSGTDFTLTISSLQPEDFATYYCQQYSSFPTTFGQGTKVEIKRTVAAPSVFIFPPSDEDLKSGTASVVCLLNNFYPREAKVQWKVDNALQSGNSQESVTEQDSKDSTYSLSSTLTLSKADYEKHKVYACEVTHQGLSSPVTKSFNRGEC
notes: IgG1 bispecific
B4: Mutated IL-17/Mutated c-Kit heterodimeric antibody (bispecific antibody)
heavy 1: not shown
light 1: B3 light 1
heavy 2: not shown
light 2: DIQMTQSPSSLSASVGDRVTITCRASQSISSYLNWYQKKPGKAPKLLIYYTSRLQSGVPSRFSGSGSGTDFTLTISSLQPEDFATYYCQQGRRLWSFGGGTKVEIKRTVAAPSVFIFPPSDEDLKSGTASVVCLLNNFYPREAKVQWKVDNALQSGNSQESVTEQDSKDSTYSLSSTLTLSKADYEKHKVYACEVTHQGLSSPVTKSFNRGEC
notes: IgG1 bispecific
B5: Mutated c-Kit/Mutated HER3 (a) heterodimeric antibody (bispecific antibody)
heavy 1: not shown
light 1: B4 light 2
heavy 2: not shown
light 2: B3 light 2 with K38D, D124K, K169D
notes: IgG1 bispecific

Experiments:
[1] = target: T1, recombinant human c-Kit (human, UniProt P10721 26-520, limits assumed); assay: SPR, BIAcore T200, antibody on chip, recombinant human antigen as analyte, steady state analysis
Description: (§1) A direct binding assay was performed to characterize the binding of the engineered antibodies against their antigen. Kinetic binding affinity constants (KD) were measured on protein-A captured protein using recombinant human antigens as analyte. Measurements were conducted on a BIAcore® T200 (GE Healthcare, Glattbrugg, Switzerland) at room temperature. […] To serve as reference, one flow cell was blank immobilized. Binding data were acquired by subsequent injection of analyte dilutions series on the reference and measuring flow cell. Zero concentration samples (running buffer only) were included to allow double referencing during data evaluation. For data evaluation, doubled referenced sensograms were used and analyzed by steady state analysis to generate the equilibrium dissociation constant (KD).

[2] = target: T2, recombinant human HER3 (human, UniProt P21860 20-643, limits assumed); assay: as above
Description: as §1

[3] = target: T2, recombinant human HER3; assay: SPR, BIAcore T200, antibody on chip, recombinant human antigen as analyte, steady state analysis; second value taken for antibody 2 arm (HER3); HER3 arm (Antibody 2), second value of the cell
Description: as §1

[4] = target: recombinant human IL-17 (human, UniProt Q16552 24-155, limits assumed); assay: SPR, BIAcore T200, antibody on chip, recombinant human antigen as analyte, steady state analysis; first value taken for antibody 1 arm (IL-17); IL-17 arm (Antibody 1), first value of the cell
Description: as §1

[5] = target: T1, recombinant human c-Kit; assay: SPR, BIAcore T200, antibody on chip, recombinant human antigen as analyte, steady state analysis; second value taken for antibody 2 arm (c-Kit); c-Kit arm (Antibody 2), second value of the cell
Description: as §1

[6] = target: T1, recombinant human c-Kit; assay: SPR, BIAcore T200, antibody on chip, recombinant human antigen as analyte, steady state analysis; first value taken for antibody 1 arm (c-Kit); c-Kit arm (Antibody 1), first value of the cell
Description: as §1

Binder	Kd [3]	Kd [4]	also measured
B1			Kd [1]: 20 nM
B2			Kd [2]: 1 nM
B3	4 nM	0.01 nM	
B4		0.07 nM	Kd [5]: 20 nM
B5	0.4 nM		Kd [6]: 22 nM
